From patent US20250002564A1 (HOSPITAL FOR SICK CHILDREN, published 2025)
Changes are numbered by the printed parent chain. Several values for one entry are separate records, joined by “and”; a condition that tells them apart may be missing. Equal values may be shown once.

B1: mAb 368 (antibody, V domains shown)
VH: QVQLVQSGAEVKKPGSSVKVSCKASGYTFTSYDINWVRQAPGQGLEWMGAIMPMFGTANYAQKFQGRVTITADESTSTAYMELSSLRSEDTAVYYCARGSSGYYYGWGQGTLVTVSS
VL: not shown
B2: mAb 128 (antibody, V domains shown)
VH: QVQLVQSGAEVKKPGASVKVSCKASGYTFTHYYMHWVRQAPGQGLEWMGIINPSSSSASYSQKFQGRVTMTRDTSTSTVYMELSSLRSEDTAVYYCARDGRYGSGSYPFDYWGQGTLVTVSS
VL: DIQMTQSPSSLSASVGDRVTITCRASQNISRYLNWYQQKPGKAPKLLIYDASNLETGVPSRFSGSGSGTDFTLTISSLQPEDFATYYCQQANGFPPTFGQGTKLEIKR
B3: mAb 158 (antibody, V domains shown)
VH: QVQLVQSGAEVKKPGASVKVSCKASGYTFTGYYMHWVRQAPGQGLEWMGWINPLNGGTNFAPKFQGRVTMTRDTSTSTVYMELSSLRSEDTAVYYCARDPGGSYSNDAFDIWGQGTLVTVSS
VL: B2 VL with N28S, T56S, G93S, P96L, Q100G, L104V, E105D
notes: also called IgG 158; Antibody 158
B4: mAb 56 (antibody, V domains shown)
VH: QVQLVQSGAEVKKPGASVKVSCKASGYTFTSYGISWVRQAPGQGLEWMGWISAYNGNTNYAQKLQGRVTMTRDTSTSTVYMELSSLRSEDTAVYYCARDIGPIDYWGQGTLVTVSS
VL: B2 VL with N28G, R31S, N34A, E55Q, T56S, G93S, P96S, L104V
notes: also called IgG 56; Antibody 56
B5: mAb 82 (antibody, V domains shown)
VH: QVQLVQSGAEVKKPGASVKVSCKASGGSFSTSAFYWVRQAPGQGLEWMGWINPYTGGTNYAQKFQGRVTMTRDTSTSTVYMELSSLRSEDTAVYYCARSRALYGSGSYFDYWGQGTLVTVSS
VL: B2 VL with N28V, R31N, N34A, A91S, N92F, G93S, F94P, K103R
notes: also called IgG 82; Antibody 82
B6: mAb 192 (antibody, V domains shown)
VH: QVQLVQSGAEVKKPGSSVKVSCKASGGTFSSYAISWVRQAPGQGLEWMGWINPNSGGANYAQKFQGRVTITADESTSTAYMELSSLRSEDTAVYYCSTYYYDSSGYSTDYWGQGTLVTVSS
VL: DIVMTQSPLSLPVTPGEPASISCRSSQSLLHSNGYNYLDWYLQKPGQSPQLLIYAASSLQSGVPDRFSGSGSGTDFTLKISRVEAEDVGVYYCMQALQTPYTFGQGTKLEIKR
B7: mAb 349 (antibody, V domains shown)
VH: EVQLLESGGGLVQPGGSLRLSCAASGFTFSNYGMHWVRQAPGKGLEWVSGISSAGSITNYADSVKGRFTISRDNSKNTLYLQMNSLRAEDTAVYYCAGNHAGTTVTSEYFQHWGQGTLVTVSS
VL: DIQMTQSPSSLSASVGDRVTITCRASQSISSWLAWYQQKPGKAPKLLIYDTSNLETGVPSRFSGSGSGTDFTLTISSLQPEDFATYYCQQSYTTPWTFGQGTRLEIKR
notes: also called IgG 349; Antibody 349
B8: mAb 160 (antibody, V domains shown)
VH: QVQLVQSGAEVKKPGASVKVSCKASGYTFTGHDMHWVRQAPGQGLEWMGIINPSGGSTSYAQKFQGRVTMTRDTSTSTVYMELSSLRSEDTAVYYCARANSLRYYYGMDVWGQGTMVTVSS
VL: B7 VL with I29V, D50A, T51A, N53S, E55Q, T56S, S91G, W96Y, R103K
notes: also called IgG 160; Antibody 160

Biological target: T1, SARS-CoV-2 Spike on wild-type pseudotyped virus (PsV) (SARS-CoV-2, UniProt P0DTC2 14-1273)
Assay: cell-based or functional assay

| Binder | Median IC50 |
| --- | --- |
| B1 | > 50 µg/mL and > 333 nM |
| B2 | > 50 µg/mL and > 333 nM |
| B3 | > 50 µg/mL and > 333 nM |
| B4 | > 50 µg/mL and > 333 nM |
| B5 | 1.6 µg/mL and 11 nM |
| B6 | > 50 µg/mL and > 333 nM |
| B7 | > 50 µg/mL and > 333 nM |
| B8 | > 50 µg/mL and > 333 nM |

Biological target: T1, SARS-CoV-2 Spike on wild-type …
Assay: cell-based or functional assay
Remark: another data set of the same source

| Binder | IC50 SARS-CoV2 PsV (IgG) [µg/mL] |
| --- | --- |
| B1 | > 50 |
| B2 | > 50 |
| B3 | > 50 |
| B4 | > 50 |
| B5 | 1.6 |
| B6 | > 50 |
| B7 | > 50 |
| B8 | > 50 |
